Data from the Immune Epitope Database (IEDB).

Experiments:
Assay in all cases: IEDB peptide-MHC binding, purified MHC/competitive/radioactivity; filed as Kd, often an IC50 or EC50 that approximates it; ≥ and ≤ were set here for values at or beyond the usual limits of such assays
[1] = molecular target: HLA-A*03:01
[2] = molecular target: HLA-A*11:01
[3] = molecular target: HLA-A*31:01
[4] = molecular target: HLA-A*33:01
[5] = molecular target: HLA-A*68:01
[6] = molecular target: HLA-A*02:06; details: source organism: Homo sapiens
[7] = molecular target: HLA-A*02:03
[8] = source organism: Vaccinia virus WR
[9] = source organism: SARS coronavirus Tor2
[10] = source organism: Mammarenavirus whitewaterense
[11] = source organism: Mammarenavirus machupoense
[12] = source organism: Mammarenavirus lassaense
[13] = source organism: Lassa virus Josiah
[14] = source organism: Mammarenavirus brazilense

Row | Sequence | Kd [1, 8] | Kd [2, 8] | Kd [3, 8] | Kd [4, 8] | Kd [5, 8] | further results
1 | SACANGWIQY | 1200 nM | 59 nM | ≥ 55000 nM | ≥ 40500 nM | 2890 nM | –
2 | SFLRKIGDK | 7600 nM | 3930 nM | 247 nM | ≥ 26200 nM | ≥ 35000 nM | –
3 | SFNHVLKRK | – | – | – | – | – | Kd [1, 9]: 111 nM; Kd [2, 9]: 1790 nM; Kd [3, 9]: 375 nM; Kd [4, 9]: 6790 nM; Kd [5, 9]: ≥ 24700 nM
4 | SINKVYGRY | 526 nM | 195 nM | 140 nM | ≥ 77700 nM | 1990 nM | –
5 | SLSPNDTTWI | – | – | – | – | – | Kd [1, 10]: ≥ 34600 nM; Kd [2, 10]: ≥ 69700 nM; Kd [3, 10]: ≥ 32300 nM; Kd [4, 10]: ≥ 60700 nM; Kd [5, 10]: ≥ 70100 nM
6 | SLVENNFFTK | 229 nM | 9.71 nM | 388 nM | 704 nM | 119 nM | –
7 | SSFDYCSTNH | – | – | – | – | – | Kd [1, 11]: 17100 nM; Kd [2, 11]: 1890 nM; Kd [3, 11]: 6320 nM; Kd [4, 11]: 15600 nM; Kd [5, 11]: 249 nM
8 | STQQNKLVIR | 17900 nM | 2240 nM | 154 nM | 4470 nM | 631 nM | –
9 | SVANGVPVH | – | – | – | – | – | Kd [1, 12]: 2270 nM; Kd [2, 12]: 9780 nM; Kd [3, 12]: ≥ 30300 nM; Kd [4, 12]: ≥ 77700 nM; Kd [5, 12]: 8070 nM
10 | TAVAKCNEKH | – | – | – | – | – | Kd [1, 13]: ≥ 70000 nM; Kd [2, 13]: ≥ 69700 nM; Kd [3, 13]: ≥ 40100 nM; Kd [4, 13]: ≥ 61800 nM; Kd [5, 13]: ≥ 70100 nM
11 | TFQLLNMIK | 20.8 nM | 19.5 nM | 326 nM | 102 nM | 11.5 nM | –
12 | TIREFPRKDK | 13100 nM | 16200 nM | 295 nM | ≥ 40900 nM | 7280 nM | –
13 | TLAILTALR | – | – | – | – | – | Kd [1, 9]: 3670 nM; Kd [2, 9]: 4460 nM; Kd [3, 9]: 326 nM; Kd [4, 9]: 833 nM; Kd [5, 9]: 117 nM
14 | TLEEAKTALK | – | – | – | – | – | Kd [1, 9]: 1350 nM; Kd [2, 9]: 4630 nM; Kd [3, 9]: ≥ 47600 nM; Kd [4, 9]: ≥ 70000 nM; Kd [5, 9]: ≥ 10000 nM
15 | TLKYPIEHGI | – | – | – | – | – | Kd [6]: ≥ 26400 nM
16 | TLNHVLALKY | 168 nM | 1150 nM | ≥ 69100 nM | ≥ 52700 nM | 13200 nM | –
17 | TMWHVTRGAV | – | – | – | – | – | Kd ([7]; source organism: Dengue virus 2 Jamaica/1409/1983): 382 nM

Row | Sequence | Kd [1, 8] | Kd [2, 8] | Kd [3, 8] | Kd [4, 8] | Kd [5, 8] | further results
18 | TQVYIAVNDK | – | – | – | – | – | Kd [1, 9]: 186 nM; Kd [2, 9]: 720 nM; Kd [3, 9]: 6720 nM; Kd [4, 9]: 9360 nM; Kd [5, 9]: 1330 nM
19 | TTYMDTFFR | 10.4 nM | 1.98 nM | 16.6 nM | 10.6 nM | 0.0507 nM | –
20 | VAGTGVQFY | 7270 nM | ≥ 26500 nM | ≥ 53900 nM | ≥ 77700 nM | ≥ 77700 nM | –
21 | VLFSIFYKDY | 668 nM | 972 nM | 1200 nM | 3090 nM | 1160 nM | –
22 | VLIFILLTA | – | – | – | – | – | Kd ([7]; source organism: Dengue virus 2 Peru/IQT2913/1996): 140 nM
23 | VLSIPPTAGI | – | – | – | – | – | Kd ([7]; source organism: Dengue virus 4 Philippines/H241/1956): 226 nM
24 | VQIGEYTFEK | – | – | – | – | – | Kd [1, 9]: 221 nM; Kd [2, 9]: 22 nM; Kd [3, 9]: 1660 nM; Kd [4, 9]: 11200 nM; Kd [5, 9]: 350 nM
25 | VQSKMSDVK | – | – | – | – | – | Kd [1, 9]: 4160 nM; Kd [2, 9]: 198 nM; Kd [3, 9]: 7070 nM; Kd [4, 9]: ≥ 25000 nM; Kd [5, 9]: ≥ 53500 nM
26 | VSTCFKLMLK | – | – | – | – | – | Kd [1, 9]: 112 nM; Kd [2, 9]: 15.3 nM; Kd [3, 9]: 806 nM; Kd [4, 9]: 5700 nM; Kd [5, 9]: 472 nM
27 | VTYTEIEPK | – | – | – | – | – | Kd [1, 9]: 31.2 nM; Kd [2, 9]: 7.49 nM; Kd [3, 9]: 1360 nM; Kd [4, 9]: ≥ 25700 nM; Kd [5, 9]: 147 nM
28 | YLCGFIKQK | – | – | – | – | – | Kd [1, 9]: 511 nM; Kd [2, 9]: 1650 nM; Kd [3, 9]: 3430 nM; Kd [4, 9]: ≥ 46700 nM; Kd [5, 9]: 6000 nM
29 | YLGSANMDWR | 850 nM | 921 nM | 1350 nM | 3690 nM | 1070 nM | –
30 | YLRLYIILAR | 160 nM | 1470 nM | 12.7 nM | 117 nM | 14.8 nM | –
31 | YSISNDLLY | 1190 nM | 337 nM | 249 nM | ≥ 65500 nM | 2310 nM | –
32 | YVEKEENMDK | ≥ 70100 nM | 2170 nM | 1270 nM | ≥ 69100 nM | 3370 nM | –
33 | YVNHTASGEH | – | – | – | – | – | Kd [1, 14]: ≥ 70000 nM; Kd [2, 14]: ≥ 69700 nM; Kd [3, 14]: ≥ 70000 nM; Kd [4, 14]: ≥ 69000 nM; Kd [5, 14]: ≥ 21700 nM
